Data set [1] deals with the molecule itself. Put plainly: SEC.
Data set [2] concerns the molecule itself. Put plainly: SEC-SAXS.
Data set [3] deals with the molecule itself. Description: SEC-SAXS. The source holds these as a separate data set.

Where two headings read alike, the source gives them in different places.

B1: FLhArc, full-length human Arc (capsid / high-molecular-weight forms) (natural protein)
chain: MELDHRTSGGLHAYPGPRGGQVAKPNVILQIGKCRAEMLEHVRRTHRHLLAEVSKQVERELKGLHRSVGKLESNLDGYVPTSDSQRWKKSIKACLCRCQETIANLERWVKREMHVWREVFYRLERWADRLESTGGKYPVGSESARHTVSVGVGGPESYCHEADGYDYTVSPYAITPPPAAGELPGQEPAEAQQYQPWVPGEDGQPSPGVDTQIFEDPREFLSHLEEYLRQVGGSEEYWLSQIQNHMNGPAKKWWEFKQGSVKNWVEFKKEFLQYSEGTLSREAIQRELDLPQKQGEPLDQFLWRKRDLYQTLYVDADEEEIIQYVVGTLQPKLKRFLRHPLPKTLEQLIQRGMEVQDDLEQAAEPAGPHLPVEDEAETLTPAPNSESVASDRTQPE
B1: in data set [1], the binding result was “binds”.

B2: MBP-2rNT, N-terminal domain of rat Arc (residues 24-137) with the poly-Ala mutation, His6-MBP fusion (domain or fragment)
chain: KPNVILQIGKCRAEMLEHVRRTHRHLLTEVSKQVERELKGLHRSVGKLENNLDGYVPTGDSQRWKKSIKACLCRCQETIANLERWVKREAAAAAAAFYRLERWADRLESMGGKY
Regarding B2, the “stoichiometry N” value in data set [2] is 2.

B3: FLrArc-7A, full-length rat Arc with a poly-Ala mutation of residues 113-119 (natural protein)
chain: MELDHMTTGGLHAYPAPRGGPAAKPNVILQIGKCRAEMLEHVRRTHRHLLTEVSKQVERELKGLHRSVGKLENNLDGYVPTGDSQRWKKSIKACLCRCQETIANLERWVKREAAAAAAAFYRLERWADRLESMGGKYPVGSEPARHTVSVGVGGPEPYCQEADGYDYTVSPYAITPPPAAGELPEQESVGAQQYQSWVPGEDGQPSPGVDTQIFEDPREFLSHLEEYLRQVGGSEEYWLSQIQNHMNGPAKKWWEFKQGSVKNWVEFKKEFLQYSEGTLSREAIQRELDLPQKQGEPLDQFLWRKRDLYQTLYVDAEEEEIIQYVVGTLQPKFKRFLRHPLPKTLEQLIQRGMEVQDGLEQAAEPSVTPLPTEDETEALTPALTSESVASDRTQPE
For B3, the “stoichiometry N” value in data set [3] was found to be 2.

Values taken from doi:10.1101/2021.12.16.472929 (bioRxiv, 2021).
